Drawing on patent US20230312689A1, this text covers IC50, pseudovirus neutralization test using the purified antibody for one molecule.

The target of this assay is two kinds of spike viruses (Wuhan type S, European type SD614G). The assay is described as follows: cell-based or functional assay.

B1: CTMA9-105 (antibody, V domains shown)
VH: EVQLVESGGGLIQPGGSLRLSCAASGITVSSNYMSWVRQAPGKGLEWVSLIYSGGSTYYADSVKGRFTISRDNSKNTLYLQMNSLRAEDTAVYYCARDLEEAGGMDVWGQGTTVTVSS
VL: DIVMTQSPGTLSLSPGERATLSCRASQSVPSIYLAWYQQRPGQAPRLLIYGASSRATGIPDRFSGSGSGTDFTLTISRLEPEDFAVYYCQQYGSSPGTFGQGTKVEIK
In the case of B1, the IC50, pseudovirus neutralization test using the purified antibody lay within 2 to 6 ng/mL.
